Measured values taken from US7579150B1, “Mobile RNA acts as a signal to regulate plant growth and development” (Iowa State University Research Foundation, Inc., priority 2004, dated 2009).
Entries after “also recorded” stand apart in the source; their conditions may differ.

B1: POTH1: KNOX transcription factor of potato, SEQ ID NO:17, 345 aa (protein, listed as Solanum tuberosum)
chain: MDDEMYGFHSTRDDYADKALMSPENLMMQTEYNNFHNYTNSSILTSNPMMFGSDDIQLSSEQTNSFSTMTLQNNDNIYQIRSGNCGGGSGSGGSSKDHNDNNNNNEDYDEDGSNVIKAKIVSHPYYPKLLNAYIDCQKVGAPAGIVNLLEEIRQQTDFRKPNATSICIGADPELDEFMETYCDILLKYKSDLSRPFDEATTFLNKIEMQLGNLCKDDGGVSSDEELSCGEADASMRSEDNELKDRLLRKFGSHLSSLKLEFSKKKKKGKLPKEARQMLLAWWDDHFRWPYPTEADKNSLAESTGLDPKQINNWFINQRKRHWKPSENMQLAVMDNLSSQFFSSDD
B2: StBEL-05: BEL transcription factor from Solanum tuberosum, SEQ ID NO:2, 688 aa (protein, listed as Solanum tuberosum)
chain: MYYQGTSDNTNIQADHQQRHNHGNSNNNNIQTLYLMNPNNYMQGYTTSDTQQQQQLLFLNSSPAASNALCHANIQHAPLQQQHFVGVPLPAVSLHDQINHHGLLQRMWNNQDQSQQVIVPSSTGVSATSCGGITTDLASQLAFQRPIPTPQHRQQQQQQGGLSLSLSPQLQQQISFNNNISSSSPRTNNVTIRGTLDGSSSNMVLGSKYLKAAQELLDEVVNIVGKSIKGDDQKKDNSMNKESMPLASDVNTNSSGGGESSSRQKNEVAVELTTAQRQELQMKKAKLLAMLEEVEQRYRQYHHQMQIIVLSFEQVAGIGSAKSYTQLALHAISKQFRCLKDAIAEQVKATSKSLGEEEGLGGKIEGSRLKFVDHHLRQQRALQQIGMMQPNAWRPQRGLPERAVSVLRAWLFEHFLHPYPKDSDKIMLAKQTGLTRSQVSNWFINARVRLWKPMVEEMYLEEVKNQEQNSTNTSGDNKNKETNISAPNEEKHPIITSSLLQDGITTTQAEISTSTISTSPTAGASLHHAHNFSFLGSFNMDNTTTTVDHIENNAKKQRNDMHKFSPSSILSSVDMEAKARESSNKGFTNPLMAAYAMGDFGRFDPHDQQMTANFHGNNGVSLTLGLPPSENLAMPVSQQNYLSNDLGSRSEMGSHYNRMGYENIDFQSGNKRFPTQLLPDFVTGNLGT

Key:
[1] = molecular target: POTH1 (full-length) in pBridge, fused to the GAL4 DNA-binding domain (Solanum tuberosum); test: yeast two-hybrid, quantitative beta-galactosidase assay; reference: full-length construct StBEL-05 (pAD-05)
[2] = system: POTH1 overexpression lines; test: Exogenous GA3 application to POTH1 overexpression lines; assay type: in vivo, Solanum tuberosum; settings: shoot apex sprayed with 10 μM GA3 in 0.002% (v/v) ethanol
Source text: Many of the traits of the phenotypes observed in POTH1 overexpression lines were similar to GA-deficient mutants. These similarities included decreased plant height, decreased internode length, and darker green coloration of the leaves (van den Berg et al., “Morphology and [^14C]Gibberellin A12 Metabolism in Wild-Type and Dwarf Solanum Tuberosum ssp. Andigena Grown Under Long and Short Photoperiods,” J. Plant Physiol. 146:467-473 (1995), which is hereby incorporated by reference in its entirety). Because of this, exogenous GA3 was applied to determine whether the overexpression lines were responsive to GA treatment. The shoot apex of overexpression lines was sprayed to runoff with 10 μM GA3 in 0.002% (v/v) ethanol or with 0.002% (v/v) ethanol alone. […] Palisade and spongy parenchyma organization is partially rescued in leaves from line 15 treated with GA3 (FIG. 5G). The GA3-treated leaf (FIG. 5J) of the severe mutant, line 15, is more similar in morphology to the wild-type leaf (FIG. 5K). Leaflets are more ovate in form rather than the typical mouse-ear shape. Wild-type leaves have a prominent mid-vein (FIG. 5L), whereas the mid-vein (FIG. 5M, arrow) is more prominent in the mutant GA3-treated leaf than in the mutant untreated leaf (FIG. 5N). […]

CaMV 35S promoter = test: Transcription (transfection) assay, 35S GUS construct in tobacco protoplasts; assay type: cell-based, cauliflower mosaic virus
ga20ox1 promoter = test: Transcription (transfection) assay, pGAOP::GUS reporter in tobacco protoplasts; assay type: cell-based, potato; settings: for decrease of relative GUS-LUC activity of the pGAOP::GUS reporter: co-transfected effector, tobacco protoplasts; for repression of ga20ox1 promoter with point mutation in the binding site: mutated reporter construct
Source text: The cauliflowermosaic virus (CaMV) 35S promoter in pBI221 (Clontech, Palo Alto, Calif.) was replaced by an enhancer fragment (−832 to −50) of the 35S promoter plus 980 bp of the ga20ox1 promoter to generate the pGAOP::β-glucuronidase (GUS) reporter construct. With this construct, the reporter GUS transcription level is augmented but its transcription may still be affected by the ga20ox1 promoter. A CaMV 35S promoter-driven luciferase (LUC) construct 35S-LUC (obtained from Dr. Takahashi, Dept. of Biological Sciences, Graduate School of Science, Univ. of Tokyo, Japan) was used as an internal control. Effector constructs were also generated by using pBI221 vector as a backbone, with the GUS gene replaced by the full-length cDNAs of either StBEL-05 or POTH1, downstream of the CaMV 35S promoter. Truncated cDNAs that encode the N-terminal protein-binding domains of StBEL-05 or POTH1 were used to generate the dominant negative constructs, StBEL5ΔC295 and POTH1ΔC122, respectively. The reporter construct with the mutated promoter was generated by site-directed PCR mutagenesis with oligos 5′-CTATTTGACTTC*ACACGGTTATTT-3′ (SEQ ID NO:23) and 5′-AAATAACCGTGTG*AAGTCAAATAG-3′ (SEQ ID NO:24).
Fully expanded leaves from three- to four-week-old tobacco plants were excised and placed in K3 basal media (Kao et al., “Nutritional Requirements for Growth of Vicia hajastana Cells and Protoplasts at a Very Low Density in Liquid Media,” Planta 126:105-110 (1975), which is hereby incorporated by reference in its entirety) supplemented with 0.4 M sucrose, 0.25% (w-v) cellulases (Karlan Research Products, Santa Rosa, CA), and 0.05% (w-v) macerases (Calbiochem, La Jolla, Calif.) and incubated for overnight at 28° C. After incubation, the liberated protoplasts were filtered through sterile cheesecloth into a Babcock bottle, and centrifuged for 10 minutes at 1000 rpm. Protoplasts were collected from the bottleneck area and washed once in K3 media with 0.4 M sucrose and resuspended in K3 media containing 0.4 M glucose to a final concentration of 4×10^6 protoplasts per milliliter. […]
Luciferase assays were performed by injecting 100-μL luciferase substrate (Promega, Madison, Wis.) into 20 μL of extract and measuring the emitted photons for 15 seconds in a TD-20 luminometer (Turner Designs, Sunnyvale, Calif.). […] A fluorescence multiwell plate reader, Fluoroskan II (MTX labs, Vienna, Va.), was used to measure GUS activity at 365 nm (excitation) and 455 nm (emission). Each sample was measured three times for both LUC and GUS activity. Relative GUS-LUC activity was calculated by dividing the ratio of GUS activity to LUC activity from different effectors with the ratio from reporter plasmid alone. Relative activities calculated from three transfection replications were presented as a mean±SE.

[3] = system: ga20ox1 promoter regions P1, P2, P3 and first intron; test: Gel retardation (gel mobility shift) assay; assay type: binding, potato; settings: recombinant protein from E. coli
Source text: The first intron with partial flanking exon sequence (450 bp) of potato ga20ox1 and its promoter (981 bp, provided by Dr. Salomé Prat, CSIC Cantoblanco Campus, Univ. of Madrid, Spain) were used for gel mobility shift assays. Polymerase chain reaction (PCR) was used to amplify three regions of the promoter: −981 to 636 (P1), −660 to 307 (P2), and −331 to 0 (P3). About a 25-bp overlap was maintained between P1 and P2 or P2 and P3 in the chance that the protein-binding site would span the overlapped region. The first intron of this gene was amplified from potato genomic DNA by using PCR and the oligos 5′-[…]-3′ (SEQ ID NO:21) and 5′-[…]-3′ (SEQ ID NO:22) as primers. These primers were designed based on the site of the first intron of the tobacco GA20 oxidase gene Ntc12. The four fragments were purified on a 1.4% agarose gel and labeled with α^32P-dATP using Klenow fragment. […]
In the competition assays, unlabeled double-stranded DNA fragments (10×, 25×, 50×, 100×) were incubated with the recombinant protein before the addition of the radioactive probe. The dissociation rates were determined by adding 500-fold more cold DNA fragments to the DNA-binding reactions that were being incubated on ice, and loaded onto the running gel every 10 minutes. […]

POTH1 = test: Yeast two-hybrid interaction with POTH1 (nutritional selection, beta-galactosidase); assay type: cell-based, potato; settings: yeast strain AH109, nutritional markers and lacZ
Source text: The Matchmaker two-hybrid system (Clontech, CA) was used for the yeast two-hybrid screen. Yeast transformation and plasmid rescue into DH5-a E. coli cells were according to the manufacturer's instructions. Full-length POTH1 was cloned into the pBridge (Clontech, CA) vector and used as bait to screen the potato (S. tuberosum ‘Desireé’) stolon cDNA library in pAD-GAL4-2.1 (Stratagene, Calif.). Positive interactions were confirmed by cotransforming yeast strain AH109 with each purified pAD plasmid and pBridge: POTH1 and plating on -leucine/-tryptophan (transformation control) and -leucine/-tryptophan/-histidine/-adenine (selection) nutrient medium. Induction of the AH109 reporter gene, lacZ, was measured with a yeast β-galactosidase assay kit (Pierce Chemicals). β-galactosidase activity (FIG. 9B) was determined from a known density of yeast cells and calculated as 1000×OD420/time of color reaction (minutes)×volume of yeast culture (ml)×OD600.
The StBEL-05 deletion constructs were amplified by PCR, then cloned into the vector, pGAD, in-frame with the GAL4 activation domain. POTH1 deletion constructs were amplified by PCR, and cloned into pBridge (Clontech) in-frame with the GAL4 binding domain. Sequencing of selected cDNAs and constructs was performed at the Iowa State University DNA Facility. For deletion analysis, modified constructs of POTH1 were cloned into the pBridge vector for fusion with the DNA-binding domain of GAL4 (FIG. 10A). For StBEL-05, constructs were cloned into the pGAD vector for fusion with the activating domain of GAL4 (FIG. 10B). Deletion constructs were made from both the amino and carboxy termini. These mutants were then tested for interaction in the yeast two-hybrid system by cotransforming into yeast strain AH109 with the corresponding full-length partner (StBEL-05 in pGAL4 or POTH1 in pBridge). All constructs were sequenced to verify that they were in-frame. Positive interactions were verified for lacZ induction by using a β-galactosidase assay (Pierce Chemical Company). For POTH1, seven deletion constructs were tested (FIG. 10A). For the BEL TFs, a fusion construct of StBEL-05 (653 aa of StBEL-05 sequence) and nine deletion constructs were tested (FIG. 10B).

Molecule | decrease in the induction of the lacZ marker (beta-galactosidase activity) relative to the full-length construct, StBEL-05 [1] | effect on leaf morphology of POTH1 overexpression lines [2] | effect on plant height / dwarf phenotype of POTH1 overexpression lines [2] | effect on activity of the CaMV 35S promoter (CaMV 35S promoter) | decrease of relative GUS-LUC activity of the pGAOP::GUS reporter (ga20ox1 promoter) | repression of ga20ox1 promoter with point mutation in the binding site (ga20ox1 promoter) | binding to ga20ox1 regulatory regions [3] | interaction with POTH1 (POTH1)
pAD5-1, StBEL-05 deletion construct in pGAD (GAL4 activation domain fusion) | 55% | – | – | – | – | – | – | –
C=C1C[C@]23C[C@@]1(O)CC[C@H]2[C@@]12C=C[C@H](O)[C@@](C)(C(=O)O1)[C@H]2[C@@H]3C(=O)O [GA3] | – | partially rescued the leaf morphology of both severe and intermediate phenotypes; also recorded: partial reversal of the leaf phenotype | caused plants with a severe phenotype to increase in height; also recorded: completely rescued the dwarf phenotype | – | – | – | – | –
B1 | – | – | – | Neither StBEL-05 nor POTH1 showed any effect | more than half | no detectable repression of promoter activity | only formed a complex with P1 | –
B2 | – | – | – | Neither StBEL-05 nor POTH1 showed any effect | more than half | no detectable repression of promoter activity | retarded the mobility of all three promoter sequences and the first intron | showed selective interaction
